Assay: soluble on expression in E. coli; label from the status in PepcDB or PDB records

Soluble on expression in E. coli, soluble:
SLGSDADSAGSLIQPMQIPGIIMPGLRRLTIRDLLAQGRTSSNALEYVREEVFTNNADVVAEKALKPESDITFSKQTANVKTIAHWVQASRQVMDDAPMLQSYINNRLMYGLALKEEGQLLNGDGTGDNLEGLNKVATAYDTSLNATGDTRADIIAHAIYQVTESEFSASGIVLNPRDWHNIALLKDNEGRYIFGGPQAFTSNIMWGLPVVPTKAQAAGTFTVGGFDMASQVWDRMDATVEVSREDRDNFVKNMLTILCEERLALAHYRPTAIIKGTFSSGS, MNQQTYAFTLEMEVRDYECDMQGIVNNSVYQNYLEHARHVYLKTVGIDFKEFTERGINLVVVRAELDYKLPLQSGDRFRVGLNMVRQSPLRFAFYQDILRLPDMKPAVKARIIGTALNGRGRPEIPAELEALMQPGELEHHHHHH, GPGSMVDVIIYTRPGCPYCARAKALLARKGAEFNEIDASATPELRAEMQERSGRNTFPQIFIGSVHVGGCDDLYALEDEGKLDSLLKTGKLI, SMDSSALPDPGFQKITLSSSSEEYQKVWNLFNRTLPFYFVQKIERVQNLALWEVYQWQKGQMQKQNGGKAVDERQLFHGTSAIFVDAICQQNFDWRVCGVHGTSYGKGSYFARDAAYSHHYSKSDTQTHTMFLARVLVGEFVRGNASFVRPPAKEGWSNAFYDSCVNSVSDPSIFVIFEKHQVYPEYVIQYTTSSKPS, SMANHLVKPDSRNCKRARELEPQVSDSPQVSSLGKSESSLSEASGLFYKEEALEKDLSDMSKEINLMLSTYAKILSERAAVDASYIDEIDGLFKEANIIENFLVQKREFLKQRFTVITNTLHK, MSLRKPNEKTMKTKFCRTAVYCLCCFMFIQPITGSQVNDTHEGVLHIDKQKTRKVSRVQYGFHYEEIGMIGEGALHAELVRNRSFEEATPPADLAVKNGLYQNVPNPRGKNKDVFHVDPLIGWNTYPLSYTPIFISRTEENPLNKENKYSMLVNVTEDIANNPEAMILNRGYYGMNLRKEVSYHLSMYIKSKNYTALLQVMLVDEQGKPVSTQLVLDVKGKEWTKLTGTLKPDKDVKRGMLAIQPLGKGQFQLDVVSLFPSDTWDNGKSVFRADIMQNLKEYAPDFIRFPGGCIVHGVNEATMYHWKKTIGPIENRPGQWSKWAPYYRTDGIGYHEFYELCEYLGADAMYVIPTGMICTGWVKQSSPWNFIQPDVDLDAYIQDALDAIEYAIGPETSKWGALRVKNGHPKPFPLKYIEIGNEDFGPVYWERYEKIYQALHRQYPDLIYIANSIIGKENDDKRIDIAKFVNPKNVKVFDEHHYQPVEWACKQHYRFDNYERGIADLFVGELGIDGKYPYNLLASGAVRMSLERNGDLNPLLAERPVMRHWDFSEHRQLHSMLINGVDCSIRTSFYYLSKMFRDHTFDVCLDAGIQGMKGLQNVFVTMGYDSESKEYILKLINLRKQEVVLQTAVKGFGKKIQAQKITLSLEPGKNNTPEMPDAVKPVQSTVTLDLNKDLQLEASSMIVYRFKEGHHHHHH, SELPVRCRNISGTLYKNRLGSGGRGRCIKQGENWYSPTEFEAMAGRASSKDWKRSIRYAGRPLQCLIQDGILNP, NIVLTQSPASLAVSLGQRATISCRANESVYSYGDSFMHWYQQKPGQPPKLLIYLASNLASGVPARFSGSGSRTDFTLTIDPVETDDAATYYCQQNNEDPWTFGGGTKLEIKRGDAAPTVSIFPPSSEQLTSGGASVVCFLNNFYPKDANVAWKIDGSERQNGVLNSWTDQDSKDSTYSMSSTLTLTKDEYERHNSYTCEATHKTSTSPIVKSFNR, MGHHHHHHSHMQEQVLYPLEAEVTMVTSFQDADPMGVIYHGNFFRYFEEARRVLMEKIQYGYRDMQDSGYMWPIIDTRVKYVKAIPFNHTIRITAQLTEWENRLRVDYVIYDAETNQRMCKAHTTQVAVSIEKQEMCFVSPAVFLDKVEQWHNHGSLN, SCQDLRVLNAIRDYHIGIPLTYTQYKQLTIQVLLDRLVLRRLYPLAIQICEYLRLPEVQGVSRILAHWACYKVQQKDVSDEDVARAINQKLGDTPGVSYSDIAARAYGCGRTELAIKLLEYEPRSGEQVPLLLKMKRSKLALSKAIESGDTDLVFTVLLHLKNELNRGDFFMTLRNQPMALSLYRQFCKHQELDTLKDLYNQDDNHQELGSFHIRASYAAEERIEGRVAALQTAADAFYKAKNEFAAKATEDQMRLLRIQRRLEDELGGRFLDLSLHDTVTTLILGGHNKRAEQLARDFRIPDKRLWWLKLAALADLEDWEELEKFSKSKKSPIGYLPFVEICMKQHNKHEAKKYASRVGPEQKVKALLLVGDVAQAAEVAIEHRNETELSLVLSHCTGATDGAIADKIQRARAQAQKK

Soluble on expression in E. coli, not soluble:
MNWAKFRETGSPEDTDMSSTPISSDTTAVSKVIDPNYVLMVADFFKAISPDESCNDFTSFDSFSVLFQNNTRALSIARGRVSCSVTVTPGISNFFKGLHGGAVASIAERVAMACVKTVVSEDKHLFIGELSMSYLSSAPISSELLVEGTVVRTGRNLSVVTVEFKIKETMKVTYLSRATFYHSPISKL, MYLTIKSIMLLRKYLLVTESQVSKCGFHIVKKKGDVLYPKRTKYSKYRKGRCSRGCKPDGTKLGFGRYGTKSCKAGRLSYRAIEAARRAIIGHFHRAMSGQFRRNGKIWVRVFADLPITGKPTEVRMGRGKGNPTGWIARVSTGQIPFEMDGVSLANARQAATLAAHKPCSSTKFVQWSLEHHHHHH, PTEEWLRYVTTARAKSKVDTFLRRKRRELINRGEERVVSVIRTSESMVSAELLDRIAAYFGFLNRETFFYAVGTGTVSLPESFKKL, MSLTNEPLASRMRPNNIDEIISQEHLVGPKGIIRRMVETKRLSSMIFYGPPGIGKTSIAKAISGSTQFKFRQLNAVTNTKKDMQLIVEEAKMSGQVILLLDEIHRLDKAKQDFLLPHLENGKIVLIGATTSNPYHAINPAIRSRAQIFELYPLDENDVRVSLDRALNDSERGLASYNPKVDEDAMAYFTTQSQGDVRSALNALELAVLSSENIDQQRHITLQDAKDCLQKGAFVSDKDGDMHYDVMSAFQKSIRGSDVNAALHYLARLIEAGDLPTIVRRLLVISFEDVGLASPSAGQRTLAAIESAERLGFPEARIPLSQAVIELCLSPKSNSGINAIDAALSDIRKGHVGQIPDHLKDGHYAGAKELGRSIGYKYPHNYENGFVTQQYLPMKLKNRIYYEPKTTSKSEQQFKAVFDHINQSQQKNKEGHHHHHH, MYCIEEKIEKALGIKEASLVLKNCNIVNVFSSEIIRGDLAIDGDTIIGIGKYKGKTEIDLSNKYVAPGFIDSHVHIESSMVSPKEFARAVISRGTTTIIVDPHEIANVCGMDGIKYMMEETKNMPLDVFFMLSSCVPLEHHHHHH, MSQLSFADVFNMAREAADNSPVIQAGQQIAEMVPTVQRMMSEQYSRSRFIRVFKDTGRHLGRWEVFSDFLSLAASELDMARIRTPESMENCRKICARYGATDIANMQEMFCLMVCALEAKFHDFLGAIFMELELGDNFRGQYFTPYSVQCLMARMLMPGVRDTIRREGIATVSDPACGAAGMLIAYAECLLEADINPSMHMFGSCIDIDPVAADMAFIQLSLLGIAAEVVTGNTLTMQYRRVRYTPVYYLNAFEKRLADLRRFRAMRDFLRGIQEAA, MGSDKIHHHHHHMLDLKQIGASESRQLKQAHDRGQLSHAYLLLSSDEVEALNTAYWLICYVNCTGEKKPDGTCPACRRILAGNHPDVFLIDTEENKQSIAIDQIRPLKQELAKSPLEGDRRYFVINHAQKLTLPAANALLNLLEEPAAPVVTFLIANNGGQILPTIKSRTQIINFSQQAASSKDRLLLANGMSQEEVDQVKSSQEVDQAVKFFYQELREHDSLAIVSAHQLAGLVKKQKQGTKAWEKYVWILLKKWGEKDLEKGDCQEAANFLADLMRVDQMRQSNVGFLNNLDYLALKWQQ, MSDGSMDDDGRLFPDLGSSTHDNREIRVRFLNRCAYPVDVFWLNPSKQPTKYGTLAQKKYLDIKTFKDHPWVARRSFDGCKVLVNEKEVFWPEPAPRMNLIVRNHCVITMKVQSLREIAGRSFLRHNPTEVPNKIKGLPRELQFEVKHFLDRKQEYSEIVCRSIPPPGPQRPQQ
